Measured values from the nanobody polyreactivity screen of Harvey et al. (2022).

Assay: yeast display, Sf9 membrane polyspecificity reagent, FACS + sequencing; frameworks hold sequencing errors
In short: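 Galactose-induced (36–48 hours) yeast carrying a synthetic nanobody display library were exposed to 10% biotinylated, detergent-solubilized Sf9 membrane reagent at 4 °C for 1 hour. FACS followed streptavidin microbead enrichment, using low and high (top ~1%) gates for expression (anti-HA) and reagent binding (streptavidin). Colony PCR, MiSeq 2 × 250 sequencing and CDR-length filtering followed. Labels for polyreactivity reflect the gate of origin.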
In the case of “QVQLVESGGGLVQAGGSLRLSCAASGFIFKDNAMGWYRQAPGKERELVAVSSGTGVRTNYADSVKGRFTISRDNAKNTVYLQMNSLKPEDSAVYYCIADTYRRAQLRFNSWGQGTQVTVSS”, the “polyreactivity (PSR sort gate)” value is reported as “low polyreactivity”.
In the case of “QVQLVESGGGLVQAGGSLRLSCAASGFIFKDYAMRWYRHSPGKERELVAAITSGVSTNYADSVKGRFTISRDNAKNTVYLQMNSLKPEDTAVSYCNAKARLAGWWLFRLEYWGQGTQVTVSS”, the “polyreactivity (PSR sort gate)” value is reported as “low polyreactivity”.
In the case of “QVQLVESGGGLVQAGGSLRLSCAASGFIFKFNAMGWYRQAPGKERELVAAINYSAGSTYYADSVKGRFTISRDNAKNTVYLKMNSLKPEDTAVYYCNALYTYGWYSDDYWGQGTQVTVSS”, the “polyreactivity (PSR sort gate)” value is reported as “high polyreactivity”.
For “QVQLVESGGGLVQAGGSLRLSCAASGFIFKIYAMGWYRQAPGKERELVATISRGGSTYYADSVKGRFTISRDNAKNTVYLQMISLNPVDTAVYYCADVFYYPPFLYNYWGQGTQVTVSS”, the “polyreactivity (PSR sort gate)” value was “high polyreactivity”.
For “QVQLVESGGGLVQAGGSLRLSCAASGFIFKKYAMGWYRQAPGKERELVAAISGSSTRTYYADSVKGRFTISRDNAKNTVYLQMNSLKPEDTAVYYCAAYYGVGFDYWGQGTQVTVSS”, the “polyreactivity (PSR sort gate)” value was “high polyreactivity”.
In the case of “QVQLVESGGGLVQAGGSLRLSCAASGFIFKPYDMGWYRQARGKEREFVAAITYSGGRTYYADSVKGRFTISRDNAKNTVYLHMNSLKPEDTAVYYCAADQYWWYWYDYWGQGTQVTVSS”, the “polyreactivity (PSR sort gate)” value is reported as “high polyreactivity”.
With “QVQLVESGGGLVQAGGSLRLSCAASGFIFKPYTMAWYRQAPGKERELVATITFSGGSTYYADSVKGRFTISRDNAKNTVYLQMNSLKPEDTAVYYCAAPRYYRGYAIYDYWGQGTQVTVSS” the “polyreactivity (PSR sort gate)” value was “low polyreactivity”.
For “QVQLVESGGGLVQAGGSLRLSCAASGFIFKQNARGWYRQAPGKERELVAAISWTGGSTYYADSVQGRFTISRDNAKNTVYLQMNSLKPEDTAVFYCAARKYKSTGDRRGTMDYWGQGTQVTVSS”, the “polyreactivity (PSR sort gate)” value was “high polyreactivity”.
With “QVQLVESGGGLVQAGGSLRLSCAASGFIFKRYAMGWYRQAPGKERELVAAITLSGGDTYYADSVKGRFTISRDNAKNTVYLQMNSLKPEDTAVYYCNAPYIGENYYWGQGTQVTVSS” the “polyreactivity (PSR sort gate)” value was “high polyreactivity”.
In the case of “QVQLVESGGGLVQAGGSLRLSCAASGFIFKRYTMGWYRQAPGKERELVAAISANGGRTYYADSVKGRFTISRDNAKNTVYLQMNSLKPEDTAVYYCAATRWDYTLYGYDYWGQGTQVTVSS”, the “polyreactivity (PSR sort gate)” value is reported as “high polyreactivity”.
For “QVQLVESGGGLVQAGGSLRLSCAASGFIFKSYAMGWYRQAPGKERELVAAISGRGGSTYYADSVKGRFTISRDNAKNTVYLQMNSLKPEDPAVYYCNVGPSTYYQYDYWGQGTQVTVSS”, the “polyreactivity (PSR sort gate)” value was “high polyreactivity”.
For “QVQLVESGGGLVQAGGSLRLSCAASGFIFKSYAMGWYRQAPGKERELVAAISGRGGSTYYADSVKGRFTISRDNAKNTVYLQMNSLKPEDTAVYYCNVVPSTYYQYDYWGQGTQVTVSS”, the “polyreactivity (PSR sort gate)” value was “high polyreactivity”.
With “QVQLVESGGGLVQAGGSLRLSCAASGFIFKVNAMGCYRQAPGKERELVAAISRRGGTTYYADSVKGRFTISRDNAKNTVYFQLNSLKPEDTAVYYCYRARSYGVTDKVAILADDYWGQGTQVTVSS” the “polyreactivity (PSR sort gate)” value was “high polyreactivity”.
For “QVQLVESGGGLVQAGGSLRLSCAASGFIFKWNAMGWYRQAPGKERELVAAITSGGGTYYADSVKGRFTISRDNAKNTVYLQMNSLKPEDTAVYYCAGYGYWGQGTQVTVSS”, the “polyreactivity (PSR sort gate)” value was “high polyreactivity”.
With “QVQLVESGGGLVQAGGSLRLSCAASGFIFKYNAMGWYRQAPGKERELVAAISYRGTRTYYADSVKGRFTISRDNAKNTVYLQMNSLKPEDTAVYYCNAGLTYNHHPYDYWGQGTQVTVSS” the “polyreactivity (PSR sort gate)” value was “high polyreactivity”.
For “QVQLVESGGGLVQAGGSLRLSCAASGFIFLGNAMGWYRQAPGKERELVAAISSGGSTYSDSVKGRFTISRDNAKHTVYLQMNSLKPEDTAVYYCAADSFIPPYDHWGQGTQVTVSS”, the “polyreactivity (PSR sort gate)” value was “low polyreactivity”.
With “QVQLVESGGGLVQAGGSLRLSCAASGFIFLGYAMGWYRQAPGNERELVAAISESSGTTSYADSVKGRFTISRDNAKNTVYLQMNSLKPEDNAVYYCAADSIGNYLLYDYWGQCTQVTVSS” the “polyreactivity (PSR sort gate)” value was “low polyreactivity”.
With “QVQLVESGGGLVQAGGSLRLSCAASGFIFLLNAMGWYRQAPGKEREFVAAISWGGGSTYYADSVKGRFTISRDNAKNTVYLQMNSLKPEDTAVYYCAAKPGKTPLTGHRGPYDTGYGYWGQGTQVTVSS” the “polyreactivity (PSR sort gate)” value was “low polyreactivity”.
With “QVQLVESGGGLVQAGGSLRLSCAASGFIFLQYPMGWYRQAPGKERDLVAAITSGGGTNYADSVKGRFTISRDNAKNTVYLQMNSLKPEDTAVYYCAARTWPWVLGATQDDYWGQGTQVTVSS” the “polyreactivity (PSR sort gate)” value was “low polyreactivity”.
In the case of “QVQLVESGGGLVQAGGSLRLSCAASGFIFLRYGMGWYRQAPGKARELVATISWSGDSTYADSVKGRFTISRDNAKNTLYLQMNSLKPEDTAVYYCATSGDWWGFRYDYWGQGTQVTVSS”, the “polyreactivity (PSR sort gate)” value is reported as “low polyreactivity”.
In the case of “QVQLVESGGGLVQAGGSLRLSCAASGFIFLTNAMGWYRQAPWKERELVAAITGGGITYYADSVKGRFTISLDNAKNTVYLQMNSLNPEDTAVYYCATDSLIFTIFDYWGQGSQVTVSS”, the “polyreactivity (PSR sort gate)” value is reported as “low polyreactivity”.
